Data: patent US20030125257A1, “Assay for identifying beta secretase inhibitors” (priority 2001, published 2003)

Biological target: purified full-length human BACE with six C-terminal His residues, expressed in Sf9 insect cells (human) (UniProt P56817)
Assay: competitive radioligand binding assay, cholic acid against Tween-20 in the binding buffer

Chain of purified full-length human BACE with six C-terminal His residues, expressed in Sf9 insect cells (human) (P56817 other isoform, or with tags, fused parts or gaps limits assumed): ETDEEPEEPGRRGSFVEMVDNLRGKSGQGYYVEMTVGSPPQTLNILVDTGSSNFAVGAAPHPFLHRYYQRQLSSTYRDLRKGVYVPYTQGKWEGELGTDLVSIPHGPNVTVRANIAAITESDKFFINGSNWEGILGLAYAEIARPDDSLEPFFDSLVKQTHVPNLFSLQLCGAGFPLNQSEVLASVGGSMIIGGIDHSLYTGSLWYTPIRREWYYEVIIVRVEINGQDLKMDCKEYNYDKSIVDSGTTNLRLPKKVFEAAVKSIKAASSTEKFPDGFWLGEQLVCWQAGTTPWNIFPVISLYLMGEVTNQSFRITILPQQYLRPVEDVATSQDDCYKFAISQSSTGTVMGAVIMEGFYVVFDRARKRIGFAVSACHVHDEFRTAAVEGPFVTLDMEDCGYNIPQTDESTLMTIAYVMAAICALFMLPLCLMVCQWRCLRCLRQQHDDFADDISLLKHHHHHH

“peptide H-4848 (Bachem), described in Nature, 1999, 402, 537” gave a fold reduction of IC-50 with cholic acid compared to Tween-20 of 3 to 4 times.
